Key:
[1] = target: T1, human FcγRIIb extracellular domain with C-terminal His tag (human, UniProt P31994 43-217); assay: SPR (Biacore)
T1 construct: extracellular domain; also called FcgRIIb
T1 sequence (looked up): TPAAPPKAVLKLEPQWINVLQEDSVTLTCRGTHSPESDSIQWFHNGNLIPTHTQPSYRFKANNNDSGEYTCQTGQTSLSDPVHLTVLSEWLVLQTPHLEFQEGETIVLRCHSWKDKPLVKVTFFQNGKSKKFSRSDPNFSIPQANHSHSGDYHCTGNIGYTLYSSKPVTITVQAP

[2] = target: T2, human FcγRIa extracellular domain with C-terminal His tag (human, UniProt P12314 16-292); assay: SPR (Biacore)
T2 construct: extracellular domain; also called FcgRIa
T2 sequence (P12314 16-292): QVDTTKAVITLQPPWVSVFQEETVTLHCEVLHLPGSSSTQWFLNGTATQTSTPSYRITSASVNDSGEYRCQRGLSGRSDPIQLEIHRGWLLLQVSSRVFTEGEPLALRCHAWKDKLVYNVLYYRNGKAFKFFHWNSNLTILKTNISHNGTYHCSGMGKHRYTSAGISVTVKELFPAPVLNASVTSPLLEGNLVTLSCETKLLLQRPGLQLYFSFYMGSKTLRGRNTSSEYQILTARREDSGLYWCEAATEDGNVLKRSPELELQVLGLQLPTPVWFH

[3] = target: T3, human FcγRIIIa type V extracellular domain with C-terminal His tag (human, UniProt P08637 17-208); assay: SPR (Biacore)
T3 construct: extracellular domain; also called FcγRIIIaV; FcgRIIIaV

[4] = target: T4, human FcγRIIa type H (allotype H131) extracellular domain with C-terminal His tag (human, UniProt P12318 34-217); assay: SPR (Biacore), antibody captured, FcγR analyte
T4 construct: extracellular domain; also called FcγRIIaH; FcγRIIa H type; not shown: His tag at the C terminus
T4 sequence (looked up): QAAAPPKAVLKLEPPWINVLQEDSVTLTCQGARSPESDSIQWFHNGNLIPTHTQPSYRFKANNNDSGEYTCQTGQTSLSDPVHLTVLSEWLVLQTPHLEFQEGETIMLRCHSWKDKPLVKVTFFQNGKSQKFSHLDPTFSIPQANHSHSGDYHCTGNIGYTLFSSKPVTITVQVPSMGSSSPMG

[5] = target: T5, human FcγRIa extracellular domain with C-terminal His tag (human, UniProt P12314 16-292); assay: SPR (Biacore), antibody captured, FcγR analyte
T5 construct: not shown: His tag at the C terminus
T5 sequence (P12314 16-292): as the sequence (P12314 16-292) above

[6] = target: T6, human FcγRIIa type R (R131) extracellular domain with C-terminal His tag (human, UniProt P12318 34-217); assay: SPR (Biacore), antibody captured, FcγR analyte
T6 construct: extracellular domain; also called FcγRIIaR; not shown: His tag at the C terminus
T6 sequence (looked up): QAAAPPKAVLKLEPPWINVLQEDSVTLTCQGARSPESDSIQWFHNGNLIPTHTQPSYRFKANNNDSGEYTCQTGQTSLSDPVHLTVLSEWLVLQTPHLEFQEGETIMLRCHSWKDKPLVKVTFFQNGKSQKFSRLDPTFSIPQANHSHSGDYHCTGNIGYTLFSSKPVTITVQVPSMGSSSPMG

T3 sequence (P08637 17-208 F176V): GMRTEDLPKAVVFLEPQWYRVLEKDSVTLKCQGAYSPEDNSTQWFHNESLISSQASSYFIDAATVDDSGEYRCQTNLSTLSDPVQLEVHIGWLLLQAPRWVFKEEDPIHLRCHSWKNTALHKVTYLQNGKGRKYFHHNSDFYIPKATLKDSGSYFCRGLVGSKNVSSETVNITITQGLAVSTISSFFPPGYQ

Binder	Kd [1] [nM]	Kd [2] [nM]	Kd [4] [nM]	further results
IL6R-2B261/IL6R-L (antibody, human IgG1, kappa, EU numbering; alterations on IL6R-B3; copies: 2 + 2) heavy: QVQLQESGPGLVKPSETLSLTCAVSGHSISHDHAWSWVRQPPGEGLEWIGFISYSGITNYNPSLQGRVTISRDNSKNTLYLQMNSLRAEDTAVYYCARSLARTTAMDYWGEGTLVTVSSASTKGPSVFPLAPSSKSTSGGTAALGCLVKDYFPEPVTVSWNSGALTSGVHTFPAVLQSSGLYSLSSVVTVPSSSLGTQTYICNVNHKPSNTKVDKKVEPKSCDKTHTCPPCPAPDLLGGDSVFLFPPKPKDTLMISRTPEVTCVVVDVSHEDPEVKFNWYVDGVEVHNAKTKPREEQDNSTYRVVSVLTVLHQDWLNGKEYKCKVSNKALPAPIEKTISKAKGQPREPQVYTLPPSRDELTKNQVSLTCLVKGFYPSDIAVEWESNGQPENNYKTTPPVLDSDGSFFLYSKLTVDKSRWQQGNVFSCSVMHEALHNHYTQESLSLSP light: not shown	1000	9	–	–
IL6R-BP084/IL6R-L (antibody, human IgG1, kappa, EU numbering; alterations on IL6R-B3; copies: 2 + 2) heavy: QVQLQESGPGLVKPSETLSLTCAVSGHSISHDHAWSWVRQPPGEGLEWIGFISYSGITNYNPSLQGRVTISRDNSKNTLYLQMNSLRAEDTAVYYCARSLARTTAMDYWGEGTLVTVSSASTKGPSVFPLAPSSKSTSGGTAALGCLVKDYFPEPVTVSWNSGALTSGVHTFPAVLQSSGLYSLSSVVTVPSSSLGTQTYICNVNHKPSNTKVDKKVEPKSCDKTHTCPPCPAPELLGGDSVFLFPPKPKDTLMISRTPEVTCVVVDVSHEDPEVKFNWYVDGVEVHNAKTKPREEQYNSTYRVVSVLTVLHQDWLNGKEYKCKMSNKALPKPIEKTISKAKGQPREPQVYTLPPSRDELTKNQVSLTCLVKGFYPSDIAVEWESNGQPENNYKTTPPVLDSDGSFFLYSKLTVDKSRWQQGNVFSCSVMHEALHNHYTQESLSLSP light: not shown	500	7	–	–
IL6R-BP151/IL6R-L (antibody, human IgG1, kappa, EU numbering; alterations on IL6R-B3; copies: 2 + 2) heavy: QVQLQESGPGLVKPSETLSLTCAVSGHSISHDHAWSWVRQPPGEGLEWIGFISYSGITNYNPSLQGRVTISRDNSKNTLYLQMNSLRAEDTAVYYCARSLARTTAMDYWGEGTLVTVSSASTKGPSVFPLAPSSKSTSGGTAALGCLVKDYFPEPVTVSWNSGALTSGVHTFPAVLQSSGLYSLSSVVTVPSSSLGTQTYICNVNHKPSNTKVDKKVEPKSCDKTHTCPPCPAPDYLGDDSVFLFPPKPKDTLMISRTPEVTCVVVDVSHEDPEVKFNWYVDGVEVHNAKTKPREEQYNSTYRVVSVLTVLHQDWLNGKEYKCKVSNAALPRPIEKTISKAKGQPREPQVYTLPPSRDELTKNQVSLTCLVKGFYPSDIAVEWESNGQPENNYKTTPPVLDSDGSFFLYSKLTVDKSRWQQGNVFSCSVMHEALHNHYTQESLSLSP light: not shown	40	–	–	–
IL6R-BP180/IL6R-L (antibody, human IgG1, kappa, EU numbering; alterations on IL6R-B3; also called IL6R-BF180/IL6R-L; copies: 2 + 2) heavy: QVQLQESGPGLVKPSETLSLTCAVSGHSISHDHAWSWVRQPPGEGLEWIGFISYSGITNYNPSLQGRVTISRDNSKNTLYLQMNSLRAEDTAVYYCARSLARTTAMDYWGEGTLVTVSSASTKGPSVFPLAPSSKSTSGGTAALGCLVKDYFPEPVTVSWNSGALTSGVHTFPAVLQSSGLYSLSSVVTVPSSSLGTQTYICNVNHKPSNTKVDKKVEPKSCDKTHTCPPCPAPELLGDDSVFLFPPKPKDTLMISRTPEVTCVVVDVSHEDGEVKFNWYVDGVEVHNAKTKPREEQYNSTYRVVSVLTVLHQDWLNGKEYKCKVSNKALPKPIEKTISKAKGQPREPQVYTLPPSRDELTKNQVSLTCLVKGFYPSDIAVEWESNGQPENNYKTTPPVLDSDGSFFLYSKLTVDKSRWQQGNVFSCSVMHEALHNHYTQESLSLSP light: not shown	–	98	–	Kd [3]: 70000 nM
IL6R-BP182/IL6R-L (antibody, human IgG1, kappa, EU numbering; alterations on IL6R-B3; copies: 2 + 2) heavy: QVQLQESGPGLVKPSETLSLTCAVSGHSISHDHAWSWVRQPPGEGLEWIGFISYSGITNYNPSLQGRVTISRDNSKNTLYLQMNSLRAEDTAVYYCARSLARTTAMDYWGEGTLVTVSSASTKGPSVFPLAPSSKSTSGGTAALGCLVKDYFPEPVTVSWNSGALTSGVHTFPAVLQSSGLYSLSSVVTVPSSSLGTQTYICNVNHKPSNTKVDKKVEPKSCDKTHTCPPCPAPDLLGGDSVFLFPPKPKDTLMISRTPEVTCVVVDVSHEDGEVKFNWYVDGVEVHNAKTKPREEQDNSTYRVVSVLTVLHQDWLNGKEYKCKVSNKALPKPIEKTISKAKGQPREPQVYTLPPSRDELTKNQVSLTCLVKGFYPSDIAVEWESNGQPENNYKTTPPVLDSDGSFFLYSKLTVDKSRWQQGNVFSCSVMHEALHNHYTQESLSLSP light: not shown	–	10	–	–
IL6R-BP234/IL6R-L (antibody, human IgG1, kappa, copies: 2 + 2) heavy: QVQLQESGPGLVKPSETLSLTCAVSGHSISHDHAWSWVRQPPGEGLEWIGFISYSGITNYNPSLQGRVTISRDNSKNTLYLQMNSLRAEDTAVYYCARSLARTTAMDYWGEGTLVTVSSASTKGPSVFPLAPSSKSTSGGTAALGCLVKDYFPEPVTVSWNSGALTSGVHTFPAVLQSSGLYSLSSVVTVPSSSLGTQTYICNVNHKPSNTKVDKKVEPKSCDKTHTCPPCPAPDYLGDDSVFLFPPKPKDTLMISRTPEVTCVVVDVQDEDGEVKFNWYVDGVEVHNAKTKPREEQDNSTYRVVSVLTVLHQDWLNGKEYKCKVSNDALPKPIEKTISKAKGQPREPQVYTLPPSRDELTKNQVSLTCLVKGFYPSDIAVEWESNGQPENNYKTTPPVLDSDGSFFLYSKLTVDKSRWQQGNVFSCSVMHEALHNHYTQESLSLSP light: not shown	–	–	20000	–
IL6R-BP238/IL6R-L (antibody, human IgG1, kappa, copies: 2 + 2) heavy: QVQLQESGPGLVKPSETLSLTCAVSGHSISHDHAWSWVRQPPGEGLEWIGFISYSGITNYNPSLQGRVTISRDNSKNTLYLQMNSLRAEDTAVYYCARSLARTTAMDYWGEGTLVTVSSASTKGPSVFPLAPSSKSTSGGTAALGCLVKDYFPEPVTVSWNSGALTSGVHTFPAVLQSSGLYSLSSVVTVPSSSLGTQTYICNVNHKPSNTKVDKKVEPKSCDKTHTCPPCPAPDYLGDDSVFLFPPKPKDTLMISRTPEVTCVVVDVSDEDGEVKFNWYVDGVEVHNAKTKPREEQDNSTYRVVSVLTVLHQDWLNGKEYKCKVSNAALPRPIEKTISKAKGQPREPQVYTLPPSRDELTKNQVSLTCLVKGFYPSDIAVEWESNGQPENNYKTTPPVLDSDGSFFLYSKLTVDKSRWQQGNVFSCSVMHEALHNHYTQESLSLSP light: not shown	–	–	7000	–
IL6R-BP241/IL6R-L (antibody, human IgG1, kappa, copies: 2 + 2) heavy: QVQLQESGPGLVKPSETLSLTCAVSGHSISHDHAWSWVRQPPGEGLEWIGFISYSGITNYNPSLQGRVTISRDNSKNTLYLQMNSLRAEDTAVYYCARSLARTTAMDYWGEGTLVTVSSASTKGPSVFPLAPSSKSTSGGTAALGCLVKDYFPEPVTVSWNSGALTSGVHTFPAVLQSSGLYSLSSVVTVPSSSLGTQTYICNVNHKPSNTKVDKKVEPKSCDKTHTCPPCPAPDLLGDDSVFLFPPKPKDTLMISRTPEVTCVVVDVSDEDGEVKFNWYVDGVEVHNAKTKPREEQYNSTYRVVSVLTVLHQDWLNGKEYKCKVSNDALPRPIEKTISKAKGQPREPQVYTLPPSRDELTKNQVSLTCLVKGFYPSDIAVEWESNGQPENNYKTTPPVLDSDGSFFLYSKLTVDKSRWQQGNVFSCSVMHEALHNHYTQESLSLSP light: not shown	–	–	9000	–
IL6R-BP243/IL6R-L (antibody, human IgG1, kappa, copies: 2 + 2) heavy: QVQLQESGPGLVKPSETLSLTCAVSGHSISHDHAWSWVRQPPGEGLEWIGFISYSGITNYNPSLQGRVTISRDNSKNTLYLQMNSLRAEDTAVYYCARSLARTTAMDYWGEGTLVTVSSASTKGPSVFPLAPSSKSTSGGTAALGCLVKDYFPEPVTVSWNSGALTSGVHTFPAVLQSSGLYSLSSVVTVPSSSLGTQTYICNVNHKPSNTKVDKKVEPKSCDKTHTCPPCPAPDYLGDDSVFLFPPKPKDTLMISRTPEVTCVVVDVSDEDGEVKFNWYVDGVEVHNAKTKPREEQYNSTYRVVSVLTVLHQDWLNGKEYKCKVSNKALPRPIEKTISKAKGQPREPQVYTLPPSRDELTKNQVSLTCLVKGFYPSDIAVEWESNGQPENNYKTTPPVLDSDGSFFLYSKLTVDKSRWQQGNVFSCSVMHEALHNHYTQESLSLSP light: not shown	–	–	6000	Kd [5]: 3 nM
IL6R-BP348/IL6R-L (antibody, human IgG1, kappa, S267A introduced into IL6R-BP267; copies: 2 + 2) heavy: QVQLQESGPGLVKPSETLSLTCAVSGHSISHDHAWSWVRQPPGEGLEWIGFISYSGITNYNPSLQGRVTISRDNSKNTLYLQMNSLRAEDTAVYYCARSLARTTAMDYWGEGTLVTVSSASTKGPSVFPLAPSSKSTSGGTAALGCLVKDYFPEPVTVSWNSGALTSGVHTFPAVLQSSGLYSLSSVVTVPSSSLGTQTYICNVNHKPSNTKVDKKVEPKSCDKTHTCPPCPAPDLLGDDSVFLFPPKPKDTLMISRTPEVTCVVVDVAEEDGEVKFNWYVDGVEVHNAKTKPREEQYNSTYRVVSVLTVLHQDWLNGKEYKCKVSNKALPAPIEKTISKAKGQPREPQVYTLPPSRDELTKNQVSLTCLVKGFYPSDIAVEWESNGQPENNYKTTPPVLDSDGSFFLYSKLTVDKSRWQQGNVFSCSVMHEALHNHYTQESLSLSP light: not shown	–	–	–	Kd [6]: 700 nM
